Results as given in paper PMC2702820, “Pyrin Modulates the Intracellular Distribution of PSTPIP1” (PLoS ONE, 2009).

What was measured:
[1] = molecular target: PSTPIP1, endogenous, PAPA syndrome patient (human (endogenous in CD14+ cells)) (UniProt O43586); assay: non-reducing SDS-PAGE with Western blot; lysates of CD14+ cells from controls and a PAPA patient, non-reducing conditions, probed with anti-PSTPIP1
[2] = molecular target: the molecule itself; assay: as above
[3] = molecular target: the molecule itself; assay: non-reducing SDS-PAGE; recombinant PSTPIP1 from E. coli run in the absence of added reducing agent, Coomassie stain

PSTPIP1, endogenous, PAPA syndrome patient (from UniProt O43586 1-416) (natural protein)
stoichiometry N [1]: 2

B1: PSTPIP1 (proline serine threonine phosphatase-interacting protein 1), endogenous, control individuals (natural protein, human (endogenous in CD14+ cells), UniProt O43586 1-416, looked up)
chain: MMPQLQFKDAFWCRDFTAHTGYEVLLQRLLDGRKMCKDMEELLRQRAQAEERYGKELVQIARKAGGQTEINSLRASFDSLKQQMENVGSSHIQLALTLREELRSLEEFRERQKEQRKKYEAVMDRVQKSKLSLYKKAMESKKTYEQKCRDADDAEQAFERISANGHQKQVEKSQNKARQCKDSATEAERVYRQSIAQLEKVRAEWEQEHRTTCEAFQLQEFDRLTILRNALWVHSNQLSMQCVKDDELYEEVRLTLEGCSIDADIDSFIQAKSTGTEPPAPVPYQNYYDREVTPLTSSPGIQPSCGMIKRFSGLLHGSPKTTSLAASAASTETLTPTPERNEGVYTAIAVQEIQGNPASPAQEYRALYDYTAQNPDELDLSAGDILEVILEGEDGWWTVERNGQRGFVPGSYLEKL
notes: PSTPIP1, human, endogenous in CD14+ cells of control individuals (C1, C2); Major species runs at 95-96 kDa (dimer) on a non-reducing gel; minor monomer at 48 kDa and faint multimers; also called CD2BP1; source: endogenous, lysates of human CD14+ cells enriched from PBMC of control individuals
stoichiometry N [2]: 2

B2: Recombinant human PSTPIP1 protein expressed in E. coli (natural protein, UniProt O43586 1-416, looked up)
chain: B1 chain
notes: PSTPIP1, human, recombinant; monomer runs at 48 kDa; the purification is not described, only that several steps of the recovery need DTT; also called recombinant PSTPIP1; source: E. coli (pHIS8 plasmid), recovered recombinant protein
stoichiometry N [3]: 2
